Laboratory results from publication PMC9129083.

Molecular target: Pst_A23 (Puccinia striiformis f. sp. tritici, UniProt A0A0L0VHF6 =M+36-181, internal_change)
Test: EMSA

Binder	binding result
ACUUCUUCUUGUUGUUGCUCCUGCUGC (ssRNA) [TaWRKY53-RNA]	binds
UUUCCCUAAAGUUUCUUACAAUGAUCUGGUUGAAGCAACAAAG (ssRNA) [TaXa21-RNA]	binds
AGGAGGCAAGGACCCACCUAGGCA (ssRNA) [M1-m-RNA]	no binding
GAAGAAGAAGAGAAGACCUGAAGA (ssRNA) [M1-RNA]	binds
AACUUCUUCUUUACUUCCUUUCCU (ssRNA) [M2-RNA]	binds
